Results from patent US10239923B2, “Specific amyloid beta binding peptides and the use of same for treating and diagnosing alzheimer's dementia” (Forschungszentrum Juelich GmbH, priority 2015, dated 2019).
Square brackets hold non-standard residues; d marks the D form.

Molecular target: T1, Aβ1-42 monomers versus Aβ1-42 oligomers and fibrils (biotinylated, D-enantiomeric, immobilized) (Homo sapiens, UniProt P05067)
T1 construct: biotinylated, D-enantiomeric Aβ1-42 monomers
Experiment: Monoclonal phage ELISA
Format: binding
Conditions: individual phage clones; species immobilized at 320 nM; absorption at 450 nm normalized with 6E10 control; higher = more monomer-specific
From the text: The specificity of the peptide results from the difference in % of the absorption values for the target molecule or the bait (for example A beta monomer) and the normalized absorption values for the competitors (for example A beta oligomers and fibrils) in the monoclonal phage ELISA.
The absorption values then constitute the affinity of individual phage clones for a particular immobilized A beta species. Here, the specificity is not dependent on the strength of the affinity, but instead only on the difference of the affinities between the species. […] The terms “competitors” and “target molecule” or “bait” are defined as specified below.
A method for normalizing the obtained values should therefore be performed. From all absorption values of the individual phage clone in the monoclonal phage ELISA, the values of the phage antibodies tested for cross-reaction can be used as background. This occurs in accordance with the previously immobilized species. The signal values of the phage antibody from the reaction trays with immobilized Aβ1-42 oligomers for this purpose can be removed from the signal values of the individual phage clone from the reaction trays with immobilized Aβ1-42 oligomers. A similar process is then carried out for Aβ1-42 monomers. In this way, a possible background signal of the phage antibody can initially be calculated from the signals of the individual phage clone. […] Only in this way is an equal interpretation of the results particularly in respect of the assessment of the specificity of the individual phage clone possible (see FIG. 2).
The affinity of individual phage clones with respect to the target molecule and the competitors was examined by means of ELISA. For this purpose, all three species were immobilized in biotinylated form on a polystyrene surface at streptavidin bound thereon. Since, during the panning rounds, oligomers and fibrils were added at the same time as competitors, these two species were immobilized in the monoclonal phage ELISA, likewise mixed. […] The streptavidin-coated microtiter plates were pre-washed as specified by the manufacturer. […] For immobilization, 100 μl were used per reaction tray and were incubated for 15 minutes at room temperature. After having washed the entire plate(s) twice with 150 μl 1×TBS per reaction tray, a blocking step with 150 μl 1×TBS/0.1% (v/v) Tween-20/1% (w/v) BSA was performed for an hour at room temperature. Three washing steps with 150 μl 1×TBS/0.1% (v/v) Tween-20 then followed per reaction tray. The amplified individual phage clones were mixed 1:1 with 1× TBS/1% (w/v) BSA. The antibody 6E10 was diluted 1:10,000 in 1×TBS/0.1% (v/v) Tween-20. […] After washing five times with 150 μl 1×TBS/0.1% (v/v) Tween-20 per reaction tray, 200 μl 1×TBS/0.1% (v/v) Tween-20 were placed in each reaction tray, and the plate(s) incubated for one hour at room temperature. The solutions were removed and replaced as follows: In all reaction trays that had been incubated previously with individual phage clone dilutions or the batch without phages, 100 μl of a phage antibody diluted 1:5,000 in 1×TBS/0.1% (v/v) Tween-20 were now added. The enzyme horseradish peroxidase (HRP) was coupled to this antibody and later served for the conversion of a substrate (TMB). […] At the same time, 100 μl of a second antibody diluted 1:1,000 in 1×TBS/0.1% (v/v) Tween-20 were now added to all reaction trays that had been previously incubated with the dilution of the 6E10 antibody, said second antibody being able to identify and bind to the 6E10 antibody originating from mice. This antibody is also HRP-coupled and thus allows a quantification of the binding of the first antibody to the immobilized target molecules or the plastics surface of the reaction tray. After one hour of incubation at room temperature, the plate(s) was/were washed 10 times with 150 μl 1×TBS/0.1% (v/v) Tween-20 per reaction tray. The signal was detected by adding the substrate 3,3′,5,5′-tetramethylbenzidine (TMB). […]

T1 sequence (P05067 672-713): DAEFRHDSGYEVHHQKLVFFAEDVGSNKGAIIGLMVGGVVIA

Sequence | Difference in signal strength between Aβ1-42 monomers (100%) and Aβ1-42 oligomers and fibrils
EHWDFGQWWQQS (H-[dE][dH][dW][dD][dF]G[dQ][dW][dW][dQ][dQ][dS]-NH2; SMILES NC(=O)CC[C@@H](NC(=O)CNC(=O)[C@@H](Cc1ccccc1)NC(=O)[C@@H](CC(=O)O)NC(=O)[C@@H](Cc1c[nH]c2ccccc12)NC(=O)[C@@H](Cc1c[nH]cn1)NC(=O)[C@H](N)CCC(=O)O)C(=O)N[C@H](Cc1c[nH]c2ccccc12)C(=O)N[C@H](Cc1c[nH]c2ccccc12)C(=O)N[C@H](CCC(N)=O)C(=O)N[C@H](CCC(N)=O)C(=O)N[C@H](CO)C(N)=O) [Mosd14] | 56.526%
HTWTHWFSWNVP (H-[dH][dT][dW][dT][dH][dW][dF][dS][dW][dN][dV][dP]-NH2; SMILES CC(C)[C@@H](NC(=O)[C@@H](CC(N)=O)NC(=O)[C@@H](Cc1c[nH]c2ccccc12)NC(=O)[C@@H](CO)NC(=O)[C@@H](Cc1ccccc1)NC(=O)[C@@H](Cc1c[nH]c2ccccc12)NC(=O)[C@@H](Cc1c[nH]cn1)NC(=O)[C@H](NC(=O)[C@@H](Cc1c[nH]c2ccccc12)NC(=O)[C@H](NC(=O)[C@H](N)Cc1c[nH]cn1)[C@H](C)O)[C@H](C)O)C(=O)N1CCC[C@@H]1C(N)=O) [Mosd10] | 71.902%
FSHSHHTWFTWN (H-[dF][dS][dH][dS][dH][dH][dT][dW][dF][dT][dW][dN]-NH2; SMILES C[C@H](O)[C@@H](NC(=O)[C@@H](Cc1ccccc1)NC(=O)[C@@H](Cc1c[nH]c2ccccc12)NC(=O)[C@H](NC(=O)[C@@H](Cc1c[nH]cn1)NC(=O)[C@@H](Cc1c[nH]cn1)NC(=O)[C@@H](CO)NC(=O)[C@@H](Cc1c[nH]cn1)NC(=O)[C@@H](CO)NC(=O)[C@H](N)Cc1ccccc1)[C@H](C)O)C(=O)N[C@H](Cc1c[nH]c2ccccc12)C(=O)N[C@H](CC(N)=O)C(N)=O) [Mosd7] | 57.960%
FSWSMVMPWPTA (H-[dF][dS][dW][dS][dM][dV][dM][dP][dW][dP][dT][dA]-NH2; SMILES CSCC[C@@H](NC(=O)[C@@H](CO)NC(=O)[C@@H](Cc1c[nH]c2ccccc12)NC(=O)[C@@H](CO)NC(=O)[C@H](N)Cc1ccccc1)C(=O)N[C@@H](C(=O)N[C@H](CCSC)C(=O)N1CCC[C@@H]1C(=O)N[C@H](Cc1c[nH]c2ccccc12)C(=O)N1CCC[C@@H]1C(=O)N[C@@H](C(=O)N[C@H](C)C(N)=O)[C@H](C)O)C(C)C) [Mosd21] | 46.030%
HLSWYWEKYLTS (H-[dH][dL][dS][dW][dY][dW][dE][dK][dY][dL][dT][dS]-NH2; SMILES CC(C)C[C@@H](NC(=O)[C@H](N)Cc1c[nH]cn1)C(=O)N[C@H](CO)C(=O)N[C@H](Cc1c[nH]c2ccccc12)C(=O)N[C@H](Cc1ccc(O)cc1)C(=O)N[C@H](Cc1c[nH]c2ccccc12)C(=O)N[C@H](CCC(=O)O)C(=O)N[C@H](CCCCN)C(=O)N[C@H](Cc1ccc(O)cc1)C(=O)N[C@H](CC(C)C)C(=O)N[C@@H](C(=O)N[C@H](CO)C(N)=O)[C@H](C)O) [Mosd9] | 68.016%
LSMNITTVHRWH (H-[dL][dS][dM][dN][dI][dT][dT][dV][dH][dR][dW][dH]-NH2; SMILES CC[C@@H](C)[C@@H](NC(=O)[C@@H](CC(N)=O)NC(=O)[C@@H](CCSC)NC(=O)[C@@H](CO)NC(=O)[C@H](N)CC(C)C)C(=O)N[C@@H](C(=O)N[C@@H](C(=O)N[C@@H](C(=O)N[C@H](Cc1c[nH]cn1)C(=O)N[C@H](CCCNC(=N)N)C(=O)N[C@H](Cc1c[nH]c2ccccc12)C(=O)N[C@H](Cc1c[nH]cn1)C(N)=O)C(C)C)[C@H](C)O)[C@H](C)O) [Mosd11] | 57.671%
DRSKGDHRITQM (H-[dD][dR][dS][dK]G[dD][dH][dR][dI][dT][dQ][dM]-NH2; SMILES CC[C@@H](C)[C@@H](NC(=O)[C@@H](CCCNC(=N)N)NC(=O)[C@@H](Cc1c[nH]cn1)NC(=O)[C@@H](CC(=O)O)NC(=O)CNC(=O)[C@@H](CCCCN)NC(=O)[C@@H](CO)NC(=O)[C@@H](CCCNC(=N)N)NC(=O)[C@H](N)CC(=O)O)C(=O)N[C@@H](C(=O)N[C@H](CCC(N)=O)C(=O)N[C@H](CCSC)C(N)=O)[C@H](C)O) [Mosd18] | 49.181%
DWSSRVYRDPQT (H-[dD][dW][dS][dS][dR][dV][dY][dR][dD][dP][dQ][dT]-NH2; SMILES CC(C)[C@@H](NC(=O)[C@@H](CCCNC(=N)N)NC(=O)[C@@H](CO)NC(=O)[C@@H](CO)NC(=O)[C@@H](Cc1c[nH]c2ccccc12)NC(=O)[C@H](N)CC(=O)O)C(=O)N[C@H](Cc1ccc(O)cc1)C(=O)N[C@H](CCCNC(=N)N)C(=O)N[C@H](CC(=O)O)C(=O)N1CCC[C@@H]1C(=O)N[C@H](CCC(N)=O)C(=O)N[C@@H](C(N)=O)[C@H](C)O) [Mosd16] | 52.387%
HFWSWTSLSMTR (H-[dH][dF][dW][dS][dW][dT][dS][dL][dS][dM][dT][dR]-NH2; SMILES CSCC[C@@H](NC(=O)[C@@H](CO)NC(=O)[C@@H](CC(C)C)NC(=O)[C@@H](CO)NC(=O)[C@H](NC(=O)[C@@H](Cc1c[nH]c2ccccc12)NC(=O)[C@@H](CO)NC(=O)[C@@H](Cc1c[nH]c2ccccc12)NC(=O)[C@@H](Cc1ccccc1)NC(=O)[C@H](N)Cc1c[nH]cn1)[C@H](C)O)C(=O)N[C@@H](C(=O)N[C@H](CCCNC(=N)N)C(N)=O)[C@H](C)O) [Mosd8] | 68.616%
STLHFYTAFLNK (H-[dS][dT][dL][dH][dF][dY][dT][dA][dF][dL][dN][dK]-NH2; SMILES CC(C)C[C@@H](NC(=O)[C@@H](Cc1ccccc1)NC(=O)[C@@H](C)NC(=O)[C@H](NC(=O)[C@@H](Cc1ccc(O)cc1)NC(=O)[C@@H](Cc1ccccc1)NC(=O)[C@@H](Cc1c[nH]cn1)NC(=O)[C@@H](CC(C)C)NC(=O)[C@H](NC(=O)[C@H](N)CO)[C@H](C)O)[C@H](C)O)C(=O)N[C@H](CC(N)=O)C(=O)N[C@H](CCCCN)C(N)=O) [Mosd6] | 67.981%
ERSQWGHRDPQS (H-[dE][dR][dS][dQ][dW]G[dH][dR][dD][dP][dQ][dS]-NH2; SMILES N=C(N)NCCC[C@@H](NC(=O)[C@H](N)CCC(=O)O)C(=O)N[C@H](CO)C(=O)N[C@H](CCC(N)=O)C(=O)N[C@H](Cc1c[nH]c2ccccc12)C(=O)NCC(=O)N[C@H](Cc1c[nH]cn1)C(=O)N[C@H](CCCNC(=N)N)C(=O)N[C@H](CC(=O)O)C(=O)N1CCC[C@@H]1C(=O)N[C@H](CCC(N)=O)C(=O)N[C@H](CO)C(N)=O) [Mosd17] | 54.492%
HNWSWEWWYNPN (H-[dH][dN][dW][dS][dW][dE][dW][dW][dY][dN][dP][dN]-NH2; SMILES NC(=O)C[C@@H](NC(=O)[C@H]1CCCN1C(=O)[C@@H](CC(N)=O)NC(=O)[C@@H](Cc1ccc(O)cc1)NC(=O)[C@@H](Cc1c[nH]c2ccccc12)NC(=O)[C@@H](Cc1c[nH]c2ccccc12)NC(=O)[C@@H](CCC(=O)O)NC(=O)[C@@H](Cc1c[nH]c2ccccc12)NC(=O)[C@@H](CO)NC(=O)[C@@H](Cc1c[nH]c2ccccc12)NC(=O)[C@@H](CC(N)=O)NC(=O)[C@H](N)Cc1c[nH]cn1)C(N)=O) [Mosd5] | 62.729%
